According to patent US20170267766A1:

Columns and labels:
[1] = molecular target: human IGF-1R (native, on cells) (human) (UniProt P08069); test: FACS titration, MCF-7
[2] = molecular target: human IGF-1R (native, on cells) (human) (UniProt P08069); test: cell-based or functional assay
[3] = molecular target: monkey IGF-1R (on COS-7 cells) (African green monkey); test: FACS titration, Cos-7
[4] = molecular target: soluble recombinant human IGF-1R hetero-tetramere with C-terminal 10-His tag (R&D Systems 305-GR) (human) (UniProt P08069); test: SPR Biacore X100, Ln(2)/koff, mean of 4
[5] = molecular target: soluble recombinant human IGF-1R hetero-tetramere with C-terminal 10-His tag (R&D Systems 305-GR) (human) (UniProt P08069); test: SPR Biacore X100, His-captured h-IGF-1R ~600 RU, mean of 4
[6] = molecular target: monkey IGF-1R (on COS-7 cells) (African green monkey); test: FACS on COS-7 cells, 4°C; inset table, axis log [M] (Table 14b prints it rounded as 5.1E-10)
[7] = molecular target: human IGF-1R (native, on cells) (human) (UniProt P08069); test: FACS on MCF-7 cells, 4°C; inset table, axis log [M] (Table 14b prints it rounded as 7.09E-10)

- EC50 [1]: 0.709 nM
- % internalization [2]: 87%
- ΔMFI (MCF-7, 10 µg/ml, 4 h) [2]: 344 MFI
- EC50 [3]: 0.51 nM
- half-life of the complex [4]: 2 to 3 h
- Kd [5]: 0.06 nM
- EC50 [6]: 0.511 nM
- EC50 [7]: 0.71 nM
B1: hz208F2 H026/L024 (antibody, from a related filing, V domains shown)
VH: QVQLVQSGAEVKKPGASVKMSCKASGYTFTSYYIYWVKQAPGQGLEWLGWIWPGDGSTKYNEKFQGRVTLTADKSSNTAYMFLSSLRSEDTAVYFCASPMITPNYAMDYWGQGTLVTVSS
VL: DIQMTQSPSSLSASVGDRVTISCRASQDISKYLNWYQQKPGKAPKLLIYYTSRLHSGVPSRFSGRGSGTDYSLTISNLQPEDFATYFCQQGSTLPYTFGGGTKVEIKR
